# Data taken from the nanobody polyreactivity screen of Harvey et al. (2022).
# Assay: yeast display, Sf9 membrane polyspecificity reagent, FACS + sequencing; frameworks hold sequencing errors
# In short: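 Using colony PCR, genes from sorted yeast display clones were amplified, then sequenced on MiSeq at 2 × 250 and filtered by CDR length. The clones had been stained with 10% biotinylated, detergent-solubilized Sf9 membrane reagent for 1 hour at 4 °C and sorted by FACS into low and high (top ~1%) gates on anti-HA and streptavidin fluorescence. Polyreactivity labels come from the gate of origin.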
row,Sequence,polyreactivity (PSR sort gate)
1,QVQLGESGGGLVQAGGTLRLTCAASGSIFNGNAMGGSRQAPGKERELVAAISRNGGSTYYAVSVKGRFTISRDNAKNTVYLQMNSQKPEDTAVYYCDTDLTVYYSYYWMYWGQGTQVTVSS,low polyreactivity
2,QVQLVESRGGLVQAGASLRLSCAASALIFGYYAMGCYRQAPVKEREFVAAIDGSDGTTYYADSVKGRFTIARDNAKNTVYLQMNSLKPEDTAVYYCNADSSSYSSDLGYDYWGQGTQVTVSS,low polyreactivity
3,QVQLVESGGGLVQAGGSLRLSCAASGSIFYRNALGWYRQAPGKERELVAAISSDGSTNYADSVKGRFTISRDNAKNTVYLQMNSLKPEDTAVYYCAAPWTQILDYWGQGTQVTVSS,low polyreactivity
4,QVQLVESGGGLVQAGGSLRLSCAASGRTFAPNAMGRSRQAPGKERELVAAITSIGTRTYYADSVKGRFTISRDNAKNTVYLHKNSLKTEVTAVYYCNKKRNADYDYWGQGTQVTVSS,low polyreactivity
5,QVQLVESGGGLVQAGGSLRLSSAASGRTFGWNSMGWYRHAPGKERELVAAISRTGNTYYADSVKGRFTISRDNAKNTVYLQMNSLKPEDTAVYYCAKGRYYTPTYFRGVDLYDYWGQGTQVTVSS,low polyreactivity
6,QVQLVESGGGLVQAGGSLRLSCAASGRIFFRNAMGWYRQAPGKERELVAVINTGGSTNYADSVKGRFTISRDNAKNTVFLQMNSLKPEDTAVYYCAVDRASRRTYNQYGFWGQGTQVTVSS,high polyreactivity
7,QVQLVESGGGLVQAGGSLRLSCAASGLTLYKNGMGWYRQAPGKERELVAVISRSGGRTYYAESVKGRFTISRDNAKNTVYLQMNSLKPEDTSVYYCAKRYGYTEYYYWGQGTQVTVSS,high polyreactivity
8,QVQLVESGGGLVQAGGSLRLSCAASGLTFTYYAMGWYRQAPGKERELVAAITYSGDSKYYADSVKGLFTISRDNAKNTVYLQMNSLKPEDTAVYYCNAEQYLYYILGNYDYWGQGTQVTVSS,low polyreactivity
9,QVQLVESGGGLVQAGGSLRLSCAASGRIFSGNAMGWYRQAPGKERELVARISRSGSNTYYADSVKGRFTISRDNAKNTVYLQMKSLKPEDTAVYYCAAKSTYWPYDRTYNSWGQVTQVTVSS,high polyreactivity
10,QVQLVESGGGLVQAGGSHRLSCAASGRTFSYNAMGWYRQAPGKERELVASITSSGGGTSYADSVKGRFTISRDNAKNTVYLQMNSLKPEDTAVYYCNRVLPHPDGYGVGARGYWGQGTQVTVSS,high polyreactivity
11,QVQLVESGGGLVQAGGSLRISCAASGSNFSIYAMGWYRQAPGKERELVATNYADSVKGRFTISRDNAKNTVYLQMNSLKPEDTAVDYCAADDLSYFWGDVPGDYWGQGTQVTVSS,low polyreactivity
12,QVQLVESGGGLVQAGGSIRLTCTPSGIIFGTYAMGWYIQAPGKERELVAAISSSGVSTYYADSVKGRFTISRDNAKNTVYLQMNSLKPEDTAVYYCNARGSNGRSDYDYWGQCTQVTVSS,high polyreactivity
13,QVQLVESGGGLVQAGGSLRLSCAASGFIFWTYAMGWYRQAPGKERELVAAITWSGTSTYYADSVKGRFTISRDNAKNTVYLQMNSLKPEDTAVYYCNALYYSRRVDYWGQGTQVTVSS,high polyreactivity
14,QVQLVDSGGGLVQAGGSLRLSCAASGRIFHGYAMGWYRLAPGKERELVAAISWRGDSTYYADSVKGRFTISRDNAKNTVYLQMNSLKPEDTAVYYCAAASRSWRDDYWGQGTQVTVSS,low polyreactivity
15,QVQLVESGGGLVQAGGSLRLSCAASGSIFTFNAMGWYRQAPGKERELVAAINWSGTRTYYADSVKGRFTISRDNAKNTVYLQMNSLKPEDTAVYYCNTRPSKRYGYDYWGQGTQVTVSS,high polyreactivity
16,QVQLVESGGGLVQAGGSLRLSCAASGRIFPYNVMGWYRQAPGKERELVAAISSGGTTDYADSVKGRFTISRDNAKNTVYLQMNSLKPEDTAVYYCAATYVYWTWGYDYWGQGTQVTVSS,low polyreactivity
17,QVQLVESGGGLVQAGGSLRLSCAASGRIFGYYPKGCYRPAPGKERELVAAISSGGNTNYADSVKGRFTISRDNAKKTVYLQMNSLKPEDTAVYYCSAYHFSFGWIRVDYWGQGTQVTVSS,high polyreactivity
